According to patent publication US20220380459A1 (DRAGONFLY THERAPEUTICS, published 2022):
Where two headings read alike, the source gives them in different places.

B1: ADI-11835 Fab (Fab, V domains shown)
VH: QLQLQESGPGLVKPSETLSLTCTVSGGSISSTDYYWGWIRQPPGKGLEWIGSIGYSGTYYNPSLKSRVTISVDTSKNQFSLKLSSVTAADTAVYYCARETAHDVHGMDVWGQGTTVTVSS
VL: EIVLTQSPATLSLSPGERATLSCRASHSVYSYLAWYQQKPGQAPRLLIYDASNRATGIPARFSGSGSGTDFTLTISSLEPEDFAVYYCQQYDNLPTFGGGTKVEIK
notes: Fab fragment; also called Ab10; I35
B2: ADI-10159 Fab (Fab, V domains shown)
VH: EVQLVESGGGLVQPGGSLRLSCAASGFTFSSYGMSWVRQAPGKGLEWVANIKQDGSEKYYVDSVKGRFTISRDNAKNSLYLQMNSLRAEDTAVYYCAREGGPYYDSSGYFVYYGMDVWGQGTTVTVSS
VL: DIQMTQSPSTLSASVGDRVTITCRASQSISSWLAWYQQKPGKAPKLLIYDASSLESGVPSRFSGSGSGTEFTLTISSLQPDDFATYYCQQYESFPTFGGGTKVEIK
notes: Fab fragment; also called Ab1; G59
B3: ADI-10177 Fab (Fab, V domains shown)
VH: EVQLVESGGGLVQPGGSLRLSCAASGFTFSSYWMSWVRQAPGKGLEWVANIKQDGSEKYYVDSVKGRFTISRDNAKNSLYLQMNSLRAEDTAVYYCARPLNAGELDVWGQGTMVTVSS
VL: DIQMTQSPSTLSASVGDRVTITCRASQSISSWLAWYQQKPGKAPKLLIYEASSLESGVPSRFSGSGSGTEFTLTISSLQPDDFATYYCQQLESYPLTFGGGTKVEIK
notes: Fab fragment; also called Ab2
B4: ADI-11830 Fab (Fab, V domains shown)
VH: EVQLVESGGGLVQPGGSLRLSCAASGFTFSSYWMSWVRQAPGKGLEWVANINTDGSEVYYVDSVKGRFTISRDNAKNSLYLQMNSLRAEDTAVYYCARDVGPGIAYQGHFDYWGQGTLVTVSS
VL: DIQMTQSPSSLSASVGDRVTITCRASQVIYSYLNWYQQKPGKAPKLLIYAASSLKSGVPSRFSGSGSGTDFTLTISSLQPEDFATYYCQQVYDTPLTFGGGTKVEIK
notes: Fab fragment; also called Ab9

Experiments:
Experiment in all cases: SPR, Fab captured, 37C
V domain of human CD33 [1] = target: T1, V domain of human CD33 (human, UniProt P20138 18-139, limits assumed)
T1 construct: recombinant, fully glycosylated V domain; also called Human CD33 V domain
Procedure: (§1) Kinetics and affinity of a series of Fab fragments of anti-CD33 antibodies with different CD33 variants (human CD33 ECD, cyno CD33 ECD, V-domain of human CD33, C-domain or human CD33 and selected CD33 SNPs) were assessed by surface plasmon resonance using Biacore 8K instrument (GE Healthcare). Anti-Fab antibody was immobilized on a CMS chip using standard amine coupling chemistry. CD33 FABs were captured on the anti-Fab chip at a density of ˜100 RU. Solutions containing different concentrations of soluble monomeric CD33 or its domains were injected over the captured FABs and control surfaces at 30 μl/min at 37° C. Surfaces were regenerated between cycles by quick injection of 10 mM glycine, pH 1.8. To obtain kinetic rate constants double-referenced data were fit to a 1:1 interaction model using Biacore 8K Evaluation software (GE Healthcare). The equilibrium binding constant KD was determined by the ratio of binding rate constants kd/kₐ.
(§2) The ability of anti-CD33 antibodies to recognize glycosylated CD33 was assayed. […] De-glycosylation status was confirmed by a shift on SDS-PAGE and MS.

[2] = target: T2, deglycosylated V domain of human CD33 (human, UniProt P20138 18-139, limits assumed, N-glycans removed by PNGase)
T2 construct: V domain deglycosylated by PNGase before testing; also called deglycosylated V CD33
Procedure: as §1, §2

[3] = target: T3, human CD33 extracellular domain (human, UniProt P20138 18-259)
T3 construct: soluble monomeric ECD; also called human CD33 ECD; hCD33
Procedure: as §1
(§3) Affinity of 29 Fab fragments binding to human and cyno CD33 ECD were assayed by Biacore analysis.

[4] = target: T3, human CD33 extracellular domain; remark: listed apart in the source
Procedure: as §1, §3

[5] = target: T4, cyno CD33 extracellular domain (Cynomolgus/Rhesus (cyno))
T4 construct: soluble monomeric ECD; also called cyno CD33 ECD
Procedure: as §1, §3

[6] = target: T3, human CD33 extracellular domain; remark: listed apart in the source
Procedure: as §1

V domain of human CD33 [7] = target: T1, V domain of human CD33; remark: listed apart in the source
Procedure: as §1

C domain of human CD33 = target: T5, C domain of human CD33 (human, UniProt P20138 140-259, limits assumed)
T5 construct: recombinant C domain
Procedure: as §1
The binding interface between the Fab fragment of each CD33 antibody to CD33 was mapped.

| Binder | Kd (V domain of human CD33 [1]) [nM] | koff (V domain of human CD33 [1]) [s⁻¹] | kon (V domain of human CD33 [1]) [M⁻¹ s⁻¹] | Kd [2] [nM] | koff [2] [s⁻¹] | kon [2] [M⁻¹ s⁻¹] | Kd [3] [nM] | koff [3] [s⁻¹] | kon [3] [M⁻¹ s⁻¹] | Kd [4] [nM] | koff [4] [s⁻¹] | kon [4] [M⁻¹ s⁻¹] | Kd [5] [nM] | koff [5] [s⁻¹] | kon [5] [M⁻¹ s⁻¹] | Kd [6] [nM] | koff [6] [s⁻¹] | kon [6] [M⁻¹ s⁻¹] | Kd (V domain of human CD33 [7]) [nM] | koff (V domain of human CD33 [7]) [s⁻¹] | further results |
| --- | --- | --- | --- | --- | --- | --- | --- | --- | --- | --- | --- | --- | --- | --- | --- | --- | --- | --- | --- | --- | --- |
| B1 | 1.14 | 0.00868 | 7.6e+06 | 0.98 | 0.00779 | 7.94e+06 | 0.53 | 0.00143 | 2.6e+06 | 0.53 | 0.00143 | 2.6e+06 | 6.86 | 0.0189 | 2.76e+06 | 0.53 | 0.00143 | 2.6e+06 | 1.14 | 0.00868 | kon (V domain of human CD33 [7]): 7.6e+06 M⁻¹ s⁻¹; binding result (C domain of human CD33): no binding |
| B2 | 5.56 | 0.005 | 905000 | 12.3 | 0.012 | 978000 | 4.53 | 0.00195 | 429000 | 4.53 | 0.00195 | 429000 | 74.9 | 0.0436 | 528000 | 4.53 | 0.00195 | 429000 | 5.56 | 0.005 | kon (V domain of human CD33 [7]): 905000 M⁻¹ s⁻¹; binding result (C domain of human CD33): no binding |
| B3 | 54.8 | 0.0857 | 1.56e+06 | 38.2 | 0.0701 | 1.88e+06 | 11.4 | 0.00636 | 558000 | 11.4 | 0.00636 | 558000 | 21.4 | 0.00754 | 353000 | 11.4 | 0.00636 | 558000 | 54.8 | 0.0857 | kon (V domain of human CD33 [7]): 1.56e+06 M⁻¹ s⁻¹; binding result (C domain of human CD33): no binding |
| B4 | 4.5 | 0.0299 | 6.67e+06 | 3.95 | 0.0269 | 6.8e+06 | 2.75 | 0.00547 | 1.99e+06 | 2.75 | 0.00547 | 1.99e+06 | 27.8 | 0.0364 | 1.34e+06 | 2.75 | 0.00547 | 1.99e+06 | 4.5 | 0.0299 | kon (V domain of human CD33 [7]): 6.67e+06 M⁻¹ s⁻¹; binding result (C domain of human CD33): no binding |
